In patent publication US20030119727A1 (Genentech, published 2003):
No end group written: not given here.

Key:
[1] = molecular target: T1, BSA (UniProt P02769 25-607); assay: phage binding to coated wells
T1 construct: Control coating; also called bovine serum albumin

[2] = molecular target: T2, recombinant human Factor VIIa (human, UniProt P08709 61-212; P08709 213-466); assay: phage binding to coated wells
T2 construct: Immobilized directly on microtiter plates at 2 ug/ml; also called FVIIa
T2 sequence (looked up) 1: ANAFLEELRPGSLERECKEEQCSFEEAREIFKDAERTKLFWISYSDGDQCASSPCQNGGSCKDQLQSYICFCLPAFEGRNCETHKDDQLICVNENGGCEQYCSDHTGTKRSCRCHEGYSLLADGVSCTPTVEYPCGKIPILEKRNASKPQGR
T2 sequence (looked up) 2: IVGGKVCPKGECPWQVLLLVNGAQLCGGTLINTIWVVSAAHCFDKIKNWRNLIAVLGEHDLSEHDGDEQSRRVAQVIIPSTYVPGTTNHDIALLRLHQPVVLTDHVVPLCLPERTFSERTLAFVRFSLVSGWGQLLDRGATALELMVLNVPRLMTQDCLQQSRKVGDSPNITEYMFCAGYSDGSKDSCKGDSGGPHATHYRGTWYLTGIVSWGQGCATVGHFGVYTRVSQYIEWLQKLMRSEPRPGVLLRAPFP

T1 sequence (P02769 25-607 limits assumed): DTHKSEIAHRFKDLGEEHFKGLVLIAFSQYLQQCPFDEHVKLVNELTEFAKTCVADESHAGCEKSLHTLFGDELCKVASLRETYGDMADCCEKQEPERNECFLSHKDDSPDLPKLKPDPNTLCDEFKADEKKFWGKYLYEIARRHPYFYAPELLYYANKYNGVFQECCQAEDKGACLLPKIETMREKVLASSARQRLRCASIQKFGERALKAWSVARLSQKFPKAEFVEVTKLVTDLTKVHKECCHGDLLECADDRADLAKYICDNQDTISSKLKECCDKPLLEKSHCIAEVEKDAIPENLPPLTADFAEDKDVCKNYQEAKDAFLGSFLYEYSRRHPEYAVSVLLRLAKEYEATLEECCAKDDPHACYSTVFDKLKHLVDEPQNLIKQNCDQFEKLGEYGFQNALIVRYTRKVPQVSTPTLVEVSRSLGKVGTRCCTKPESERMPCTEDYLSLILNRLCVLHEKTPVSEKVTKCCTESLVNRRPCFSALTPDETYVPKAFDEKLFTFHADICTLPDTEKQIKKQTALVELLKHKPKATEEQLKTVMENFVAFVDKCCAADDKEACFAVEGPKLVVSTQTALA

B1: Phage bearing the TF56 peptide sequence EAALCDDPRLDRWYCIFAGE (Pool E clone, polyvalent phage display) (peptide)
peptide: EAALCDDPRLDRWYCIFAGE
modifications: not fully specified (bridges); cysteine pairing not given here; also: displayed on phage, coat protein fusion partner not given here
notes: also called this clone
- binding result [1]: no binding
- binding result [2]: binds
